Experimental findings from patent US20230242675A1 (SHANGHAI EPIMAB BIOTHERAPEUTICS, published 2023) are described below.

Experiment [1] deals with T1, human PD-L1/His fusion protein (human, UniProt Q9NZQ7 19-239). As to the kind of experiment: BLI Octet RED96, antibody on AHC sensor, single conc. PD-L1/His; test group 1. As to the method: (§1) Briefly, antibodies were characterized for affinities and binding kinetics by Octet®RED96 biolayer interferometry (Pall ForteBio LLC). Antibodies were captured by Anti-hIgG Fc Capture (AHC) Biosensors (Pall) at a concentration of 100 nM for 30 seconds. Sensors were then dipped into running buffer (1×pH 7.2 PBS, 0.05% Tween 20, 0.1% BSA) for 60 seconds to check baseline. Binding was measured by dipping sensors into a single concentration of recombinant human PD-L1/His fusion protein (Novoprotein). Dissociation was followed by dipping sensors into running buffer for 1200 seconds. The association and dissociation curves were fitted to a 1:1 Langmuir binding model using ForteBio Data Analysis software (Pall). […] The off-rate ratio serves as a data normalization. Accordingly, in each test group, the off-rate ratios of the humanized antibodies can be compared with that of the chimeric antibody, and the off-rate ratios of each of the humanized antibodies can be compared to one another within all test groups.
(Biolayer interferometry detects binding as a change in optical thickness at a sensor tip.)

For experiment [2], the target named is T1, human PD-L1/His fusion protein. As to the kind of experiment: BLI off-rate; test group 1. The method, then:
as §1

Experiment [3] shares this target. As to the kind of experiment: BLI Octet RED96, antibody on AHC sensor, single conc. PD-L1/His; test group 2. As to the method:
as §1

The target is the same in experiment [4]. As to the kind of experiment: BLI off-rate; test group 2. As to the method: as §1

T1 sequence (Q9NZQ7 19-239 limits assumed): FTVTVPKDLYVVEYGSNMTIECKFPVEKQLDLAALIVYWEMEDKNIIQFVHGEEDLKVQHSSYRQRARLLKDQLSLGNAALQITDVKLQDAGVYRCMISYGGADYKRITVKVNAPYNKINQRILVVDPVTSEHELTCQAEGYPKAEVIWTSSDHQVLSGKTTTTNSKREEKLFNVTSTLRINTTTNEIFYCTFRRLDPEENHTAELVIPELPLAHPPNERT

B1: HuEM0005-87-1 (antibody, human IgG1, V domains shown)
VH: EVQLVQSGAEVKKPGASVKVSCKASGYTFTDYYINWVRQAPGQGLEWMGETIPNTGGTTYNQKFKARVTMTVDTSTSTVYMELSSLRSEDTAVYYCARYQSGSPFAYWGQGTTVTVSS
VL: DIVMTQSPDSLAVSLGERATINCKASQNVGTAVAWYQQKPGQPPKLLIYSASNRYTGVPDRFTGSGSGTDFTLTISSLQAEDVAVYYCQQHYSTPYTFGGGTKLEIK
notes: also called HuEM0005-87-l
For the molecule B1, the koff (as a rule, the rate constant with which the complex falls apart) in experiment [1] worked out at 0.000937 s⁻¹. Besides, the “Off-Rate Ratio to that of EM0005-87c” value in experiment [2] was 64%.

B2: HuEM0005-87-2 (antibody, human IgG1, V domains shown)
VH: EVQLVQSGAEVKKPGASVKVSCKASGYTFTDYYINWVRQAPGQGLEWMGETIPNTGGTTYNQKFKARVTLTVDTSTSTVYMELSSLRSEDTAVYYCARYQSGSPFAYWGQGTTVTVSS
VL: DIVMTQSPDSLAVSLGERATINCKASQNVGTAVAWYQQKPGQPPKLLIYSASNRYTGVPDRFTGSGSGTDFTLTISSLQAEDVAVYYCQQHYSTPYTFGGGTKLEIK
The molecule B2 registered a koff in experiment [1] of 0.000797 s⁻¹. For the same molecule, the “Off-Rate Ratio to that of EM0005-87c” value in experiment [2] came out at 54%.

B3: HuEM0005-87-5 (antibody, human IgG1, V domains shown)
VH: EVQLVQSGAEVKKPGASVKVSCKASGYSFTDYYINWVKQAPGQGLEWIGETIPNTGGTTYNQKFKAKATLTRDKSTSTAYMELKSLRSEDTAVYYCARYQSGSPFAYWGQGTTVTVSS
VL: DIVMTQSPDSLAVSLGERATINCKASQNVGTAVAWYQQKPGQPPKLLIYSASNRYTGVPDRFTGSGSGTDFTLTISSLQAEDVAVYYCQQHYSTPYTFGGGTKLEIK
The molecule B3 displayed a koff in experiment [1] of 0.000947 s⁻¹. Also, in experiment [2], the “Off-Rate Ratio to that of EM0005-87c” value came out at 64%.

B4: HuEM0005-87-4 (antibody, human IgG1, V domains shown)
VH: EVQLVQSGAEVKKPGASVKVSCKASGYSFTDYYINWVRQAPGQGLEWIGETIPNTGGTTYNQKFKAKATLTVDKSTSTAYMELSSLRSEDTAVYYCARYQSGSPFAYWGQGTTVTVSS
VL: DIVMTQSPDSLAVSLGERATINCKASQNVGTAVAWYQQKPGQPPKLLIYSASNRYTGVPDRFTGSGSGTDFTLTISSLQAEDVAVYYCQQHYSTPYTFGGGTKLEIK
As for B4, in experiment [1], the koff is 0.000768 s⁻¹. Also, in experiment [2], the “Off-Rate Ratio to that of EM0005-87c” value turned out to be 52%.

B5: HuEM0005-87-8 (antibody, human IgG1, V domains shown)
VH: EVQLVQSGAEVKKPGASVKVSCKASGYTFTDYYINWVRQAPGQGLEWIGETIPNTGGTTYNQKFKARVTLTVDKSTSTVYMELSSLRSEDTAVYYCARYQSGSPFAYWGQGTTVTVSS
VL: EIVMTQSPATLSVSPGERATLSCKASQNVGTAVAWYQQKPGQAPRLLIYSASNRYTGIPARFSGSGSGTEFTLTISSLQSEDFAVYYCQQHYSTPYTFGGGTKLEIK
The molecule B5 came in with an off-rate (koff) in experiment [3] of 0.000844 s⁻¹. Further, the “Off-Rate Ratio to that of EM0005-87c” value in experiment [4] is 81%.

B6: HuEM0005-87-3 (antibody, human IgG1, V domains shown)
VH: EVQLVQSGAEVKKPGASVKVSCKASGYTFTDYYINWVRQAPGQGLEWIGETIPNTGGTTYNQKFKARVTLTVDKSTSTVYMELSSLRSEDTAVYYCARYQSGSPFAYWGQGTTVTVSS
VL: DIVMTQSPDSLAVSLGERATINCKASQNVGTAVAWYQQKPGQPPKLLIYSASNRYTGVPDRFTGSGSGTDFTLTISSLQAEDVAVYYCQQHYSTPYTFGGGTKLEIK
As to B6, the off-rate constant (koff) in experiment [1] was found to be 0.000926 s⁻¹. Also, the “Off-Rate Ratio to that of EM0005-87c” value in experiment [2] is 63%.

B7: HuEM0005-87-6 (antibody, human IgG1, V domains shown)
VH: EVQLVQSGAEVKKPGASVKVSCKASGYTFTDYYINWVRQAPGQGLEWMGETIPNTGGTTYNQKFKARVTMTVDTSTSTVYMELSSLRSEDTAVYYCARYQSGSPFAYWGQGTTVTVSS
VL: EIVMTQSPATLSVSPGERATLSCKASQNVGTAVAWYQQKPGQAPRLLIYSASNRYTGIPARFSGSGSGTEFTLTISSLQSEDFAVYYCQQHYSTPYTFGGGTKLEIK
Turning to B7, the koff in experiment [1] came to 0.000998 s⁻¹. Moreover, the “Off-Rate Ratio to that of EM0005-87c” value in experiment [2] came out at 68%.

B8: HuEM0005-87-7 (antibody, human IgG1, V domains shown)
VH: EVQLVQSGAEVKKPGASVKVSCKASGYTFTDYYINWVRQAPGQGLEWMGETIPNTGGTTYNQKFKARVTLTVDTSTSTVYMELSSLRSEDTAVYYCARYQSGSPFAYWGQGTTVTVSS
VL: EIVMTQSPATLSVSPGERATLSCKASQNVGTAVAWYQQKPGQAPRLLIYSASNRYTGIPARFSGSGSGTEFTLTISSLQSEDFAVYYCQQHYSTPYTFGGGTKLEIK
Regarding B8, the off-rate constant (koff) in experiment [3] was 0.000709 s⁻¹. In experiment [4], the “Off-Rate Ratio to that of EM0005-87c” value stood at 68%.

B9: HuEM0005-90-5 (antibody, human IgG1, V domains shown)
VH: EVQLVQSGAEVKKPGASVKVSCKASGYTFTSHSINWVRQATGQGLEWMGYMYIGNGYTEYNEKFKGRVTLTSNTSISTAYMELSSLRSEDTAVYYCAKITPVVAPYVMDYWGQGTSVTVSS
VL: DIQMTQSPSFLSASVGDRVTITCKASQDVGTAVAWYQQKPGKAPKLLIYWASTRHTGVPSRFSGSGSGTEFTLTISSLQPEDFATYYCQQYSSYPYTFGQGTKLEIK
Consider B9, for which, in experiment [1], the off-rate (koff) was 0.00027 s⁻¹. Besides, the “Off-Rate Ratio to that of EM0005-90c” value in experiment [2] was determined as 107%.

B10: HuEM0005-90-2 (antibody, human IgG1, V domains shown)
VH: EVQLVQSGAEVKKPGASVKVSCKASGYTFTSHSINWVRQATGQGLEWIGYMYIGNGYTEYNEKFKGRATLTSNTSISTAYMELSSLRSEDTAVYYCAKITPVVAPYVMDYWGQGTSVTVSS
VL: DIQLTQSPSFLSASVGDRVTITCKASQDVGTAVAWYQQKPGKAPKLLIYWASTRHTGVPSRFSGSGSGTEFTLTISSLQPEDFATYYCQQYSSYPYTFGQGTKLEIK
Consider B10, for which the koff in experiment [1] came to 0.000227 s⁻¹. Also, the “Off-Rate Ratio to that of EM0005-90c” value in experiment [2] amounted to 90%.

B11: HuEM0005-90-6 (antibody, human IgG1, V domains shown)
VH: EVQLVQSGAEVKKPGASVKVSCKASGYTFTSHSINWVRQATGQGLEWIGYMYIGNGYTEYNEKFKGRATLTSNTSISTAYMELSSLRSEDTAVYYCAKITPVVAPYVMDYWGQGTSVTVSS
VL: DIQMTQSPSFLSASVGDRVTITCKASQDVGTAVAWYQQKPGKAPKLLIYWASTRHTGVPSRFSGSGSGTEFTLTISSLQPEDFATYYCQQYSSYPYTFGQGTKLEIK
Take B11: in experiment [1], the off-rate (koff) is 0.000254 s⁻¹. In experiment [2], the “Off-Rate Ratio to that of EM0005-90c” value was found to be 100%.

B12: HuEM0005-90-3 (antibody, human IgG1, V domains shown)
VH: EVQLVQSGAEVKKPGASVKVSCKTSGYTFTSHSINWVRQATGQGLEWMGYMYIGNGYTEYNEKFKGRVTMTSNTSISTAYMELSSLRSEDTAVYYCAKITPVVAPYVMDYWGQGTSVTVSS
VL: DIQLTQSPSFLSASVGDRVTITCKASQDVGTAVAWYQQKPGKAPKLLIYWASTRHTGVPSRFSGSGSGTEFTLTISSLQPEDFATYYCQQYSSYPYTFGQGTKLEIK
With B12, in experiment [1], the koff was 0.000304 s⁻¹. For the same molecule, the “Off-Rate Ratio to that of EM0005-90c” value in experiment [2] was 120%.

B13: HuEM0005-90-1 (antibody, human IgG1, V domains shown)
VH: EVQLVQSGAEVKKPGASVKVSCKASGYTFTSHSINWVRQATGQGLEWMGYMYIGNGYTEYNEKFKGRVTLTSNTSISTAYMELSSLRSEDTAVYYCAKITPVVAPYVMDYWGQGTSVTVSS
VL: DIQLTQSPSFLSASVGDRVTITCKASQDVGTAVAWYQQKPGKAPKLLIYWASTRHTGVPSRFSGSGSGTEFTLTISSLQPEDFATYYCQQYSSYPYTFGQGTKLEIK
notes: measured without the G55A change
With B13, the koff in experiment [1] amounted to 0.000259 s⁻¹. For the same molecule, the “Off-Rate Ratio to that of EM0005-90c” value in experiment [2] worked out at 102%.

B14: HuEM0005-90-4 (antibody, human IgG1, V domains shown)
VH: EVQLVQSGAEVKKPGASVKVSCKTSGYTFTSHSINWVRQATGQGLEWIGYMYIGNGYTEYNEKFKGRATLTSNTSISTAYMELSSLRSEDTAVYYCAKITPVVAPYVMDYWGQGTSVTVSS
VL: DIQLTQSPSFLSASVGDRVTITCKASQDVGTAVAWYQQKPGKAPKLLIYWASTRHTGVPSRFSGSGSGTEFTLTISSLQPEDFATYYCQQYSSYPYTFGQGTKLEIK
With B14, the koff in experiment [1] was determined as 0.000246 s⁻¹. Also, the “Off-Rate Ratio to that of EM0005-90c” value in experiment [2] is 97%.
